# Assay results: patent US20250296984A1 (THELPER, published 2025)
# Where a chain is given by its changes, count along the chain named. Like-named read-outs stand apart in the source and are kept apart here.
# B1: US28-13-5G6-1D3 (antibody, V domains shown)
# VH: EVKLVESGGGLVQPGGSLRLACATSGFTFTDYYMSWVRQPPGKALEWLGFIRSKANGYTTEYSASVKGRFTISRDNSQSILYLQMNTLRSEDSATYYCARDERRTAWLAYWGQGTLVTVSA
# VL: DVLMTQTPLSLPVSLGDQASISCRSSQSIVHSNGNTYLDWYLQKPGQSPKLLIYKVSNRFSGVPDRFSGSGSGTDFTLKISRVEAEDLGVYYCFQGSHVPTWTFGGGTKLEIKR
# notes: also called US28-13-5G6-1D3 rAb; 13-5G6-1D3 clone
# B2: monovalent VUN100 (VHH)
# VHH: EVQLVESGGGLVQPGGSLRLACAVSGPGLIFKFTGVAWYRRQVPGAKRGLVALITGDGATRYGDSVKGRFTVSRDIAAKRVYLEMNDLRSEDTAVYYCKTGEYWGQGTQVTVSS
# notes: also called Mv VUN100; VUN100 Ab
# B3: bivalent VUN100 (VHH)
# chain: EVQLVESGGGLVQPGGSLRLACAVSGPGLIFKFTGVAWYRRQVPGAKRGLVALITGDGATRYGDSVKGRFTVSRDIAAKRVYLEMNDLRSEDTAVYYCKTGEYWGQGTQVTVSSGGGGSGGGGSGGGGSGGGGSGGGGSGGGGSEVQLVESGGGLVQPGGSLRLACAVSGPGLIFKFTGVAWYRRQVPGAKRGLVALITGDGATRYGDSVKGRFTVSRDIAAKRVYLEMNDLRSEDTAVYYCKTGEYWGQGTQVTVSSEQKLISEEDLHHHHHH
# notes: also called VUN100b; BvVUN100
# How the values were obtained:
# [1] = target: T1, US28 of HCMV strain DB fused to a C-terminal 6His tag (human cytomegalovirus (HCMV) strain DB, UniProt P69332 1-354); test: flow cytometry, CHO cells expressing US28 of strain DB
# T1 chain: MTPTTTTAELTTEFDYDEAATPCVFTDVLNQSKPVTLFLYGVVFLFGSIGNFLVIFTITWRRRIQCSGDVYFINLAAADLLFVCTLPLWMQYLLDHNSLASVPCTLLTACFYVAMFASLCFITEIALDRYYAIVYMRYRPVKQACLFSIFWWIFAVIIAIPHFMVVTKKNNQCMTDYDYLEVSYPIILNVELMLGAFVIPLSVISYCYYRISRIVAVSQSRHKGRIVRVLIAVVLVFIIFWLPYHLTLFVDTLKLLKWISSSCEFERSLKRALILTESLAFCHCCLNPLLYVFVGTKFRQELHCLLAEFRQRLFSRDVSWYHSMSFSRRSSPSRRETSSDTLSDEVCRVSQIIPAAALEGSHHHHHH
# [2] = target: T2, US28 of HCMV strain TB40/E fused to a C-terminal 6His tag (human cytomegalovirus (HCMV) strain …, UniProt P69332 1-354); test: flow cytometry, CHO cells (FIG. 21C)
# T2 construct: also called TB40/E form of US28
# T2 chain: T1 chain with A8T, D15E, E18L, A19G, V24T, I49V, N170D
# [3] = target: T3, mutated US28 (artificial form with all known US28 mutations) fused to a C-terminal 6His tag (artificial variant of human …, UniProt P69332 1-354); test: flow cytometry, CHO-mutated strain against control CHO cells (FIG. 21B)
# T3 construct: also called mutated strain; CHO-mutated strain
# T3 chain: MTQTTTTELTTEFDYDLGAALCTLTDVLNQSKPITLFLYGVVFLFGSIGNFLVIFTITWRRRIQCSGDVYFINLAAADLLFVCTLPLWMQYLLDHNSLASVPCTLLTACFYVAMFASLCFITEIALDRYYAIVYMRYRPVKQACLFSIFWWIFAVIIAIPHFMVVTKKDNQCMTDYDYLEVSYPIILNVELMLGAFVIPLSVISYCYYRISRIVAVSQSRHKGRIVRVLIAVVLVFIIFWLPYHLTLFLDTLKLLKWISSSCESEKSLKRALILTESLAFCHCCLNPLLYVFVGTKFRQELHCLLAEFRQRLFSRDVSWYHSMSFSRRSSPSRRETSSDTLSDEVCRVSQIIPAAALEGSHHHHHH
# [4] = target: T1, US28 of HCMV strain DB fused to a …; test: flow cytometry, CHO-US28 against control CHO cells
# [5] = target: T1, US28 of HCMV strain DB fused to a …; test: flow cytometry, CHO-US28 against control CHO cells
# [6] = target: T3, mutated US28 (artificial form with all …); test: flow cytometry, CHO cells expressing the mutated US28
# [7] = target: T4, US28 of HCMV strain Ad169 (human cytomegalovirus (HCMV) strain …, UniProt P69332 1-354); test: flow cytometry, HCMV Ad169 infected against Mock MRC-5 cells
# T4 sequence: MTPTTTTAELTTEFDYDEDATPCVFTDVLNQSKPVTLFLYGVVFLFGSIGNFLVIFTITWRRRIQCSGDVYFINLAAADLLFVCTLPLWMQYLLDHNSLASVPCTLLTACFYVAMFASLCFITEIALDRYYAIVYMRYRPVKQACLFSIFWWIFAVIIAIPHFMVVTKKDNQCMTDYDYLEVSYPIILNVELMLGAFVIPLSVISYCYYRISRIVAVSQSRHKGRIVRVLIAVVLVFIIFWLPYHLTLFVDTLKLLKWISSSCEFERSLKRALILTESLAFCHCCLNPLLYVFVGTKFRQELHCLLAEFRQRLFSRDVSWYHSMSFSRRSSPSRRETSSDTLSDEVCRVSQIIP
# [8] = target: T2, US28 of HCMV strain TB40/E fused to a …; test: flow cytometry, CHO cells (FIG. 21D)
# [9] = target: T2, US28 of HCMV strain TB40/E fused to a …; test: flow cytometry, CHO cells expressing US28 of strain TB40/E
# [10] = target: T5, US28 of HCMV strain VHL/E fused to a C-terminal 6His tag (human cytomegalovirus (HCMV) strain …, UniProt P69332 1-354); test: flow cytometry, processed data of FIG. 33; reference
# T5 construct: also called VHL/E-encoded US28
# T5 chain: T1 chain with E18D, A19E, F25L, N170D, R267K, V346A
# [11] = target: T6, US28 of HCMV strain Merlin fused to a C-terminal 6His tag (human cytomegalovirus (HCMV) strain …, UniProt F5HF62 1-354); test: flow cytometry, transfected HEK Phoenix cells, 6.76 nM
# T6 construct: also called Merlin-encoded US28
# T6 sequence: T1 chain with A19D, N170D, S330G
# [12] = target: T5, US28 of HCMV strain VHL/E fused to a …; test: as above
# [13] = target: T2, US28 of HCMV strain TB40/E fused to a …; test: as above
# [14] = target: T1, US28 of HCMV strain DB fused to a …; test: as above
# [15] = target: T6, US28 of HCMV strain Merlin fused to a …; test: flow cytometry, processed data of FIG. 33
# [16] = target: T2, US28 of HCMV strain TB40/E fused to a …; test: flow cytometry, processed data of FIG. 33
# [17] = target: T1, US28 of HCMV strain DB fused to a …; test: flow cytometry, processed data of FIG. 33
Binder,% of cells bound [1] [%],% change in absolute binding between the DB and TB40/E forms [2] [%],specificity (US28 cells over control cells) [3] [fold],binding specificity comparative to the specificity displayed by VUN100 [4] [fold],binding specificity comparative to the specificity displayed by VUN100 [5] [fold],% of cells bound [6] [%],"fold binding, infected over uninfected cells [7] [fold]",% retention of binding activity between the DB and TB40/E forms [8] [%],% of cells bound [9] [%],binding result [6],variation in binding relative to US28 as encoded by VHL/E [10],binding value (Preliminary Binding Data) [11],binding value (Preliminary Binding Data) [12],binding value (Preliminary Binding Data) [13],binding value (Preliminary Binding Data) [14],variation in binding relative to US28 as encoded by VHL/E [15],variation in binding relative to US28 as encoded by VHL/E [16],variation in binding relative to US28 as encoded by VHL/E [17]
B1,16.6,< 10,~15,1.65,1.65,12.9,~16,~100,18.2,,,,,,,,,
B2,6.91,> 35,< 1,,,1.41,,≤ 60,4.33,no binding,,,,,,,,
B3,9.24,> 40,2.43,,,2.58,,≤ 60,5.2,,0,0.71,2.29,0.16,0.62,-2.41,-14.8,-2.92
